Numbering of substitutions follows the chain as printed. Where two headings read alike, the source gives them in different places.
Columns and labels:
[1] = biological target: Mtb SufR_(6-229)-His6 (Mycobacterium tuberculosis H37Rv); assay: cryo-EM structure
[2] = biological target: T1, SufR6-229-His6 (holo, [4Fe-4S]) (Mycobacterium tuberculosis H37Rv, UniProt O53151 30-253); assay: EMSA
T1 sequence: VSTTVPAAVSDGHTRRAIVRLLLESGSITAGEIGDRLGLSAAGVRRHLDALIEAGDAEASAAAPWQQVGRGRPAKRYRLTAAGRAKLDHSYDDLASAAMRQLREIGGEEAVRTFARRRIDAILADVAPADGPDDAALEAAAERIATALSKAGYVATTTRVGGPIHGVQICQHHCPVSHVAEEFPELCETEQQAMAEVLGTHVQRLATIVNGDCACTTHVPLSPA

SufR-R75M = biological target: T2, SufR-R75M (Mycobacterium tuberculosis H37Rv, UniProt O53151 30-253, R99M); assay: EMSA
T2 sequence: T1 sequence with R70M

SufR-M2 (AT-hook mutant) = biological target: T3, SufR-M2 (AT-hook mutant) (Mycobacterium tuberculosis H37Rv, UniProt O53151 30-253, R99A;R101A); assay: EMSA
T3 sequence: T1 sequence with R70A, R72A

[3] = biological target: T4, SufR-M1 (RRH motif mutant) (Mycobacterium tuberculosis H37Rv, UniProt O53151 30-253, R74A;R75A;H76A); assay: EMSA
T4 sequence: T1 sequence with R45A, R46A, H47A

SufR-R51A = biological target: T5, SufR-R51A (Mycobacterium tuberculosis H37Rv, UniProt O53151 30-253, R75A); assay: EMSA
T5 sequence: T1 sequence with R46A

[4] = biological target: T1, SufR6-229-His6 (holo, [4Fe-4S]); assay: EMSA; remark: listed apart in the source

With “Mtb SufR_(6-229)-His6 (domain or fragment)” the stoichiometry N [1] was 2.

B1: PsufR-PM (dsDNA)
DNA 1: CCGATCAACGGAATTTTGTCGAAGTGATGTCACTAAAATCCCGGCGGTCT
DNA 2: AGACCGCCGGGATTTTAGTGACATCACTTCGACAAAATTCCGTTGATCGG
B1: binds [2].

B2: PsufR 50-bp (dsDNA)
DNA 1: CCGATCAACGGAATTTTGTCACACTGATGTTGTGAAAATCCCGGCGGTCT
DNA 2: AGACCGCCGGGATTTTCACAACATCAGTGTGACAAAATTCCGTTGATCGG
B2: binds (SufR-R75M); no binding (SufR-M2 (AT-hook mutant)); no binding [3]. B2: no binding (SufR-R51A).

B3: PsufR-DM (dsDNA)
DNA 1: B2 DNA 1 with T14C, T16G, A36C, A38G
DNA 2: B2 DNA 2 with T13C, T15G, A35C, A37G
B3: no binding [4].

From paper doi:10.64898/2025.12.26.696629
